Data as given in patent US10480012B2, “CYP-P22 biocatalytic nanoparticles with cytochrome P450 activity for prodrug activation” (UNIVERSIDAD NACIONAL AUTÓNOMA DE MÉXICO, priority 2015, dated 2019).

Columns and labels:
pH activity profile = assay type: biochemical; settings: 500 μM 2,6-DMP, 5 mM H2O2
Procedure: To determine the activity profile at different pH values for the encapsulated and free enzyme, catalytic activity was measured at the following pHs: 5 (100 mM sodium acetate), 6 (100 mM potassium phosphate}, 7, 8 and 9 (100 mM Tris-HCl), 10 (100 mM borates). Catalytic activity was measured in a final volume of 0.1 mL using as substrate 500 μM 2,6-DMP and initiating the reaction with 5 mM H2O2.

[1] = test system: human MCF7 breast cancer cells; assay: CYP activity in tumor cells treated with nanoparticles (BFC fluorescence assay); assay type: cell-based; settings: 100 μM BFC, fluorescence images
Procedure: I) The presence of biocatalytic nanoparticles (loaded nanoparticles) with CYP activity is evaluated in transformation of 7-benzyloxy-4-trifluorometyl-coumarin (BFC) monitored by fluorescence according to the method of Donato et al.. The fluorescence assay for determining CYP activity is performed with a direct incubation of cultured tumor cells in a 12-well plate in the presence of BFC 100 μM. […] After 60 min incubation at 37° C. the incubation medium is removed and the conjugated products of CYP transformation will be hydrolyzed with a mixture of 3-giucoronidase/arylsulfatase for 2 hours at 37° C. Finally, samples are diluted with the corresponding solution and product fluorescence (7-hydroxy-4-trifluoromethylcoumarin, HFC) is quantified in a spectrofluorimeter with 410 nm excitation and 510 nm emission.
J) Affinity evaluation of functionalized loaded nanoparticles in tumor cells in vitro is carried out in human MCF7 breast cancer cells that are maintained in DMEM medium (Dulbecco's Modified Eagle's Medium) supplemented with 10% fetal bovine serum. […] The presence of biocatalytic nanoparticles (CYP-P22) with CYP activity is evaluated in the transformation of 7-benzyloxy-4-trifluoromethyl-coumarin (BFC) monitored by fluorescence according to the method of Donato et al.. […]

trypsin = assay: Stability to protease degradation (trypsin), residual activity; assay type: physicochemical; settings: 10 U trypsin per mg protein, room temperature
Procedure: For proteolysis assays, the encapsulated and free enzyme was treated with 10 U of trypsin per mg protein, incubating for 1 and 20 h at room temperature. At the end of each time, an aliquot was taken out of the sample and the residual activity was measured in 100 mM Tris-HCl buffer pH 8 using 500 μM 2,6-DMP as substrate and initiating the reaction with 5 mM H2O2.

[2] = Temperature stability, activity retention at 40 and 50° C.; assay type: physicochemical
Procedure: Stability of encapsulated CYP and the free enzyme was determined by measuring the percentage of activity retention at different times when the protein was incubated at 40 and 50° C. in a water bath. Incubation times for each of the temperatures were 0, 5, 10, 15 and 30 min. At the end of each time, an aliquot was removed from the sample, centrifuged for 1 min at 16,000×g and left to rest for 10 min to temper the sample before measuring activity. Catalytic activity was measured in a final volume of 0.1 mL in 100 mM Tris-HCl buffer pH 8 using 500 μM 2,6-DMP as substrate and initiating the reaction with 5 mM H2O2.

[3] = Kinetic parameters of encapsulated and free CYP with 2,6-DMP and H2O2; assay type: biochemical
Procedure: To calculate the kinetic parameters using 2,6-DMP as a substrate, two curves were constructed with two different concentrations of hydrogen peroxide, 5 mM and 60 mM. Reactions were carried out in 0.1 mL (50 mM Tris-HCl pH 8) with the following phenol concentrations: 10, 25, 50, 125, 250 and 500 μM. The reaction was started by adding 5 mM or 60 mM of H2O2. The amount of encapsulated enzyme used was 42.9 picomoles (assays with 5 mM H2O2) and 21.45 picomoles (assays with 60 mM H2O2); the amount of protein was determined by a concentration assay, specific for CYP450, for binding to CO. The catalytic activity was spectrophotometrically monitored at 468 nm (ε468=14800 M^−1 cm^−1 using an Agilent 8453 UV-vis spectrophotometer. Catalytic constants were obtained through the GraphPad Prism 6 program.
H) Catalytic capacity of P22 capsids with CYP inside is evaluated. Reactions were carried out in 0.1 mL (50 mM Tris-HCl pH 8) with the following phenol concentrations: 10, 25, 50, 125, 250 and 500 μM. The reaction was started by adding 5 mM or 60 mM of H2O2. The amount of encapsulated enzyme used was 42.9 picomoles, the amount of protein was determined by a CO binding assay specific for CYP450. Catalytic activity was spectrophotometrically monitored at 468 nm (ε468=14800 M^−1 cm^−1). […] The encapsulated enzyme follows a Michaelis-Menten kinetics as does free CYP.

B1: CYP-P22: cytochrome P450 (CYPBM3 “21B3” fused to scaffold protein) encapsulated in a bacteriophage P22 nanocapsid (protein)
chain: MAIKEMPQPKTFGELKNLPLLNTDKPVQALMKIADELGEIFKFEAPGRVTRYLSSQRLVKEACDESRFDKNLSQALKFVRDFAGDGLATSWTHEKNWKKARNILLPSLSQQAMKGYHAMMVDIAVQLVQKWERLNSDEKIEVPEDVTRLTLDTIGLCGFNYRFNSFYRDQPHPFITSMVRALDEAMNKLQRANPDDPAYDENKRQFQEDIKVMDLVDKIIADRKASGEQSDDLLTHMLHGKDPETGEPLDDENIRYQIITFLIAGHETTSGLLTFALYFLVKNPHVLQKAAEEAARVLVDPVPSYKQVKQLKYVGMVLNEALRLWPTAPAFSLYAKEDTVLGGEYPLEKGDELMVLIPQLHRDKTIWGDDVEEFRPERFENPSAIPQHAFKPFGNGQRACIGQQFALHEATLVLGMMLKHFDFEDHTNYELDIEETLTLKPEGFVIKAKSKKIPLGGIPSPSTGSLVPRGSCRSNAVAEQGRKTQEFTQQSAQYVEAARKHYDAAEKLNIPDYQEKEDAFMQLVPPAVGADIMRLFPEKSAALMYHLGANPEKARQLLAMDGQSALIELTRLSERLTLKPRGKQISSAPHADQPITGDVSAANKDAIRKQMDAAASKGDVETYRKLKAKLKGIR
pH activity profile
  pH of optimum activity: pH 8 and 9
[1]
  cytochrome P450 activity in treated tumor cells versus endogenous activity in untreated cells: much greater
trypsin; 1 hour
  activity retained after incubation with trypsin: 96%
trypsin; 20 hours
  activity retained after incubation with trypsin: 38%
[2]; 40° C.
  stability compared with free enzyme: practically the same
[2]; 50° C.
  inactivation compared with free CYP: even faster than that found for free CYP
[3]
  catalytic activity using 2,6-DMP and H2O2 as substrates: catalytically active
[3]; substrate 2,6-DMP, 5 mM H2O2, 50 mM Tris-HCl pH 8
  kcat app: 127.2 (±2.3) min^−1
